What was measured:
[1] = molecular target: integrin αV/β5 receptor (Homo sapiens, UniProt P06756+P18084); assay: SPOT peptide microarray (μSPOT) binding assay; settings: for relative integrin αV/β5 binding in 15-mer peptide library screening: His-tag integrin αV/β5 2.5 nM, semi-quantitative; for relative integrin αV/β5 binding, truncation scanning library of 19-mer epitopes: integrin αV/β5 2.5 nM
Experimental: μSPOT peptide arrays^25 (CelluSpots, Intavis AG, Cologne, Germany) were synthesized using a RePepSL synthesizer (Intavis AG) on acid labile, amino functionalized, cellulose membrane discs (Intavis AG) containing 9-fluorenylmethy-loxycarbonyl-β-alanine (Fmoc-β-Ala) linkers (minimum loading 1.0 μmol/cm). Synthesis was initiated by Fmoc deprotection using 20% piperidine in N-methylpyrrolidone (NMP) (1×2 and 1 ×4 μL, 3 and 5 min, respectively) followed by washing with dimethylforma-mide (DMF, 7×100 μL per disc) and ethanol (EtOH, 3×300 μL per disc). The loading of the discs were reduced to 50%, by using a mixture of Fmoc-Gly-OH and Boc-Gly-OH (0.25 M: 0.25 M in NMP). All couplings were achieved using 1.2 μL of coupling solution consisting of preactivated amino acids (AAs, 0.5 M) with ethyl 2-cyano-2-(hydroxyimino)acetate oxyma (1.5 M) and N,N′-diisopropylcarbodiimide (DIC, 1.1 M) in NMP (2:1:1, AA:oxyma:DIC). The couplings were carried out 6 times (5, 10, 20, 30, 30, and 30 min, respectively), and subsequently, the membrane was capped twice with capping mixture (5% […] in NMP), followed by washes with DMF (7×100 μL per disc). After chain elongation, final Fmoc deprotection was performed with 20% piperidine in NMP (3×4 μL, 5 min each), followed by 6× washes with DMF, subsequent N-terminal acetylation with capping mixture (3×4 μL, 5 min each) and final washes with DMF (7×100 μL per disc) and EtOH (7×200 μL per disc). Dried cellulose membrane discs were transferred to 96 deep-well blocks and were treated with the side-chain deprotection solution consisting of 80% TFA, 12% DCM, 5% H2O, and 3% TIPS (150 μL per well) for 1.5 h at room temperature (rt). Afterward, the deprotection solution was removed, and the discs were solubilized overnight at rt using a solvation mixture containing 88.5% TFA, 4% trifluoromethansufonic acid (TFMSA), 5% H2O, and 2.5% TIPS (250 μL per well). The resulting peptide-cellulose conjugates were precipitated with ice-cold ether (700 μL per well) and spun down at 1000 rpm for 90 min, followed by an additional wash of the formed pellet with ice-cold ether. The resulting pellets were redissolved in DMSO (250 μL per well) to give final stocks, which were transferred to a 384-well plate and printed (in duplicates) on white coated CelluSpots blank slides (76×26 mm, Intavis AG) using a SlideSpotter robot (Intavis AG).
After the peptide array slides were rinsed with 100 mM phosphate buffered saline (PBS) (pH 7.4), the arrays were blocked with 3% bovine serum albumin (BSA) in PBS for >2 h at rt. Subsequently, the arrays were incubated with His-tagged Integrin receptor (2.5 nM) in blocking for 1 h at rt. After 5×1 min washes with blocking buffer the slides were probed with HRP-conjugated 6x-His tag antibody (1:10000, ab184607, abcam) for 0.5 h at rt. Finally, the slides were washed 3×1 min with PBS, 2×1 min with PBST, 2×1 min PBS at rt. The washed arrays visualized using SuperSignal West Femto Maximum Sensitivity Substrate (Thermo Scientific) with Fusion FX SPectra multimodal imaging platform (Vilber). The resulting blots were analyzed using the Array Analyze Software (Active Motif), which defines the error range of each data set by comparing the intensities of each peptide duplicate on the analyzed array.
Prior to the initial screening, we confirmed that the secondary antibody produces no non-specific binding (‘background binding’) to the coated microscopic slide (FIG. 41A). The relative binding affinity of the resulting peptides was then evaluated in a semi-quantitative manner by screening the μSPOT peptide array with recombinantly expressed His-tag integrin αV/β5 (2.5 nM), followed by incubation with a horse radish peroxidase (HRP) conjugated 6x-His antibody (FIG. 41B). […]

[2] = test system: mouse 3T3-L1 fibroblasts; assay: Gene expression in 3T3-L1 fibroblasts (q-PCR); type: cell-based; settings: 3T3-L1 fibroblasts
Experimental: 3T3-L1 cells (a murine fibroblast cell line) were split onto 12-well plates and grown to confluence before inducing differentiation by treatment with 86 nM insulin, 0.1 μM dexamethasone, and 250 μM methyl isobutylxanthine. Two days after induction, cells were switched to an inducing medium in the presence of recombinant RUCILPs, or commercial recombinant irisin (Sigma, #SRP8039-10UG and Phoenix pharmaceuticals, #067-29A), or phosphate buffered saline (PBS) for two days. Subsequently, cells were maintained in 86 nM insulin in the presence of indicated concentrations of recombinant RUCILPs, 21-AABP1, commercial recombinant irisin, or PBS for four days with medium change every other day for 6 days. Cells were then harvested for q-PCR analysis as described in standard protocol for gene expression analysis.
Total RNA from cells or tissues was extracted according to the instructions provided by manufacturer of RNeasy mini kit (Qiagen) using QIAzol lysis reagent (Qiagen), followed by measurements of RNA purities and concentrations by NanoDrop 2000 spectrophotometer (Thermo Scientific). A total of 1 μg of RNA was used for the reverse transcription to cDNA using the iScript™ Select cDNA Synthesis Kit (Bio-Rad Laboratories). The samples were subjected to real-time PCR using the LC480 system (Roche Diagnostics) after premixing with Precision®PLUS Master Mix (Primer Design). For each indicated gene, samples were run in duplicate in a 384-well plate and ΔΔCt method was used for quantifying the expressions after normalization to the housekeeping Rpl36 or GAPDH gene.
Firstly, we tested the dose-response effects of RUCILPs on gene expression in mouse fibroblasts (3T3-L1), mouse […] (MLO-Y4), and mouse myoblasts (C2C12). To estimate effect on adipocyte browning, we measured expression of Ucp1, Prdm16, Pgc1a, Dio2 and Cox2, and expression of AdipoQ was measured as a marker of white adipocytes. As a marker of bone formation, we measured expression of Sclerostin; and markers of myotube formation included expression of Heyl, Sox3, and Stat3.

[3] = test system: integrin receptor; assay: Integrin inhibitor pre-treatment in RUCILP2 cellular studies; type: cell-based; settings: 10 μM for 10 minutes before RUCILP2
Experimental: Human white pre-adipocytes were cultured until 80% confluent and switched into differentiation media (with 0.3 ml/ml fetal calf serum, 8 μg/ml d-biotin, 0.5 μg/ml insulin, 400 ng/ml dexamethasone). The differentiation process to mature adipocytes was completed after 12-14 days. The treatment of RUCILP2 and irisin started from the third day of differentiation. For integrin complex inhibition, cells were treated with 10 μM of CycloRGDyK (Selleckchem, #S7844) for 10 minutes and washed with PBS before treated with RUCILP2 and irisin, respectively. Cells were harvested after 14 days of differentiation and thermogenesis gene were quantified by quantitative polymerase chain reaction (q-PCR).
Two days after induction, cells were switched to inducing medium in the presence of 15 nM recombinant RUCILP2, or commercial recombinant irisin (Sigma, #SRP8039-10UG and Phoenix pharmaceuticals, #067-29A), or saline for two days. After that, cells were maintained in 86 nM insulin and 1 nM T3 in the presence of indicated concentrations of recombinant RUCILP2 or commercial recombinant irisin, or saline for four days with medium change every other day. For inhibition of the integrin complex, cells were treated with 10 μM of cRGDyK for 10 minutes before treatment with recombinant RUCILP2 or commercial recombinant irisin or saline every other day during 6 days of differentiation. […]

Sequence of integrin αV/β5 receptor (P06756 31-992 limits assumed): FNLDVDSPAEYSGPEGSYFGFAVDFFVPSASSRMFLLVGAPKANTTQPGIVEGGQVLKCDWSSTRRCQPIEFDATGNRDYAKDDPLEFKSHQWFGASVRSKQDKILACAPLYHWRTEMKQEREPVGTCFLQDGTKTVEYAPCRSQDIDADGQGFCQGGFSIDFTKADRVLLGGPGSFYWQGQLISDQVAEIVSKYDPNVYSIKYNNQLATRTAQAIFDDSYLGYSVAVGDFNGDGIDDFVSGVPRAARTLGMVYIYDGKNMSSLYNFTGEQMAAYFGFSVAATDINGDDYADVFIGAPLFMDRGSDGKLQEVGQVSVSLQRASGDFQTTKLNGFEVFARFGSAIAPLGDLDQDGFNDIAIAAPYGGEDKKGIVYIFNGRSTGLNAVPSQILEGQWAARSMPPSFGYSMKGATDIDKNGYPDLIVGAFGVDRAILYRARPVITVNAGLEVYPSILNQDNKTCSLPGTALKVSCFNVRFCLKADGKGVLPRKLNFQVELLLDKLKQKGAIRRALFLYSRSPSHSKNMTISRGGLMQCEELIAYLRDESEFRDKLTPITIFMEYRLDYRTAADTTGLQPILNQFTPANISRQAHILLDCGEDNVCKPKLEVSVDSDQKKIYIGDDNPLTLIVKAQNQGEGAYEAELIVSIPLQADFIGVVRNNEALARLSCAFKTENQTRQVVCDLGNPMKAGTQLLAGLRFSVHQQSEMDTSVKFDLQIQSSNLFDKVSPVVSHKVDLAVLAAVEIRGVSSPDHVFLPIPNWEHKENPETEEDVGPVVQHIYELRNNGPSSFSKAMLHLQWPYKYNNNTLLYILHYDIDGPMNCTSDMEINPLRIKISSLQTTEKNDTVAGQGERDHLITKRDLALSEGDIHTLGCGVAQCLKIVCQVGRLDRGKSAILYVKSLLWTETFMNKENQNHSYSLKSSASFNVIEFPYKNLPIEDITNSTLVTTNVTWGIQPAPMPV
Sequence of integrin αV/β5 receptor (P18084 24-719 limits assumed): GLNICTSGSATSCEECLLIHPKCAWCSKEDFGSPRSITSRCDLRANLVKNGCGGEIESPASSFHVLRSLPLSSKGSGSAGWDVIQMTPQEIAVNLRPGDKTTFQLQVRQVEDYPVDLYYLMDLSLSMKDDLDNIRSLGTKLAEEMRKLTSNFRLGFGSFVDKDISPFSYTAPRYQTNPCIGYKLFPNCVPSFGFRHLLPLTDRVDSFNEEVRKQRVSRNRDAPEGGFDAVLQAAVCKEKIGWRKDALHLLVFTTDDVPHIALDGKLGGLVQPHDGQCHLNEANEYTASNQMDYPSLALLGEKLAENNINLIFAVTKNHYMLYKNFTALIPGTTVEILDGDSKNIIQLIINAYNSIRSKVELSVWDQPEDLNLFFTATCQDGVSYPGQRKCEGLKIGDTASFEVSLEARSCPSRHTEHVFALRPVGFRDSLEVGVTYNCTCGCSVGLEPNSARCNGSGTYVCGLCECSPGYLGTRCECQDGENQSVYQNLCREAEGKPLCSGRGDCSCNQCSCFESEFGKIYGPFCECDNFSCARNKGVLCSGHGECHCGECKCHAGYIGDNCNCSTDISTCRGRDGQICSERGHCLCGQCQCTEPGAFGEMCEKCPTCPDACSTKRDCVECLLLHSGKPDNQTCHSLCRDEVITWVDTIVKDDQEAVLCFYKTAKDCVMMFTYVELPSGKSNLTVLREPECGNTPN

relative integrin αV/β5 binding in 15-mer peptide library screening [1] | Substance | further results
binding epitopes | SEQ ID NO: 183: 19-mer binding epitope of RUCILP2, residues 12-30, ETSAKASWKNAADGKEAAG (Alanine scanning sequence; (1)..(19) Alanine scanning sequence of RUCILP1) | –
relatively high affinity | SEQ ID NO: 95: C-terminal 15-mer of RUCILP1, residues 74-88, ESAKSEKVEFTTVKK (Ruminococcus torques) | –
significant binding | SEQ ID NO: 165: 15-mer of RUCILP2, residues 70-84, AAGNESVKSEKVTFK (Ruminococcus torques) | –

The next lines start with the substance.

Substance | relative integrin αV/β5 binding in 15-mer peptide library screening [1] | further results
21-AABP1: the 21-amino acids fragment derived from RUCILP1 (DGTTYSVEVTAVDAAGEESAK; Ruminococcus torques) | – | effects on browning markers Ucp1, Prdm16, Dio2 [2]: non-significant
SEQ ID NO: 169: 19-mer binding epitope of RUCILP1, residues 12-30, ETSAKVSWKNAADGKEAAG (Ruminococcus torques) | binding epitopes | –
SEQ ID NO: 268: 9-mer truncation of RUCILP2 epitope, residues 12-20, ETSAKASWK (Ruminococcus torques) | – | relative integrin αV/β5 binding, truncation scanning library of 19-mer epitopes [1]: high binding affinity
SEQ ID NO: 168: C-terminal 15-mer of RUCILP2, residues 73-87, NESVKSEKVTFKTLK (Ruminococcus torques) | relatively high affinity | –
CycloRGDyK | – | effect of pre-treatment on cellular effects of RUCILP2 [3]: blocked
SEQ ID NO: 235: 9-mer truncation of RUCILP1 epitope, residues 12-20, ETSAKVSWK (Ruminococcus torques) | – | relative integrin αV/β5 binding, truncation scanning library of 19-mer epitopes [1]: high binding affinity

From patent US20240336661A1, “PEPTIDES DERIVED FROM RUMINOCOCCUS TORQUES” (University of Copenhagen, priority 2021, published 2024)
